T1: human calcitonin receptor (human, UniProt P30988 25-474)
T1 sequence (looked up): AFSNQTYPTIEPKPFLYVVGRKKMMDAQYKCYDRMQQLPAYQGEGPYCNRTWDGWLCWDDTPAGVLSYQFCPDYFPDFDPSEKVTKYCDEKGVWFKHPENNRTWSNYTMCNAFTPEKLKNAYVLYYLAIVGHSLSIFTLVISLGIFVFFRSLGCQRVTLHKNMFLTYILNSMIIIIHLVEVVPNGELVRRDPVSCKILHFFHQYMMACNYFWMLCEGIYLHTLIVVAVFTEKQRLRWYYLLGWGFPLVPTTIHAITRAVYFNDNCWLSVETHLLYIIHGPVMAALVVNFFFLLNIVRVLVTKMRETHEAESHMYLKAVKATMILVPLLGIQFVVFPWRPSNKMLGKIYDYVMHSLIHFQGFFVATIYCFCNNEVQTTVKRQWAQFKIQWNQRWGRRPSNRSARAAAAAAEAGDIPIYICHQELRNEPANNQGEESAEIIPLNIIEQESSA

B1: N^ε1-[2-[2-[2-[[(4S)-4-carboxy-4-(19-carboxynonadecanoylamino)butanoyl]amino]ethoxy]ethoxy]acetyl]-[Ala14,Arg17,Pro21,Pro27,Pro31]-h-amylin (peptide)
peptide: K([AEEA-γGlu-C20 diacid])CNTATCATQRLAAFLRHSSPNFGAIPSSTPVGSNTY-NH2
modifications: disulfide 2-7; N-terminus assumed
SMILES: CC[C@H](C)[C@H](NC(=O)[C@H](C)NC(=O)CNC(=O)[C@H](Cc1ccccc1)NC(=O)[C@H](CC(N)=O)NC(=O)[C@@H]1CCCN1C(=O)[C@H](CO)NC(=O)[C@H](CO)NC(=O)[C@H](Cc1c[nH]cn1)NC(=O)[C@H](CCCNC(=N)N)NC(=O)[C@H](CC(C)C)NC(=O)[C@H](Cc1ccccc1)NC(=O)[C@H](C)NC(=O)[C@H](C)NC(=O)[C@H](CC(C)C)NC(=O)[C@H](CCCNC(=N)N)NC(=O)[C@H](CCC(N)=O)NC(=O)[C@@H](NC(=O)[C@H](C)NC(=O)[C@@H]1CSSC[C@H](NC(=O)[C@@H](N)CCCCNC(=O)COCCOCCNC(=O)CC[C@H](NC(=O)CCCCCCCCCCCCCCCCCCC(=O)O)C(=O)O)C(=O)N[C@@H](CC(N)=O)C(=O)N[C@@H]([C@@H](C)O)C(=O)N[C@@H](C)C(=O)N[C@@H]([C@@H](C)O)C(=O)N1)[C@@H](C)O)C(=O)N1CCC[C@H]1C(=O)N[C@@H](CO)C(=O)N[C@@H](CO)C(=O)N[C@H](C(=O)N1CCC[C@H]1C(=O)N[C@H](C(=O)NCC(=O)N[C@@H](CO)C(=O)N[C@@H](CC(N)=O)C(=O)N[C@H](C(=O)N[C@@H](Cc1ccc(O)cc1)C(N)=O)[C@@H](C)O)C(C)C)[C@@H](C)O
notes: analogue of human amylin; also called compound 72
B2: N^ε1-[2-[2-[2-[[(4S)-4-carboxy-4-(19-carboxynonadecanoylamino)butanoyl]amino]ethoxy]ethoxy]acetyl]-[Arg17,Pro21,Pro27,Pro31]-h-amylin (peptide)
peptide: K([AEEA-γGlu-C20 diacid])CNTATCATQRLANFLRHSSPNFGAIPSSTPVGSNTY-NH2
modifications: disulfide 2-7; N-terminus assumed
SMILES: CC[C@H](C)[C@H](NC(=O)[C@H](C)NC(=O)CNC(=O)[C@H](Cc1ccccc1)NC(=O)[C@H](CC(N)=O)NC(=O)[C@@H]1CCCN1C(=O)[C@H](CO)NC(=O)[C@H](CO)NC(=O)[C@H](Cc1c[nH]cn1)NC(=O)[C@H](CCCNC(=N)N)NC(=O)[C@H](CC(C)C)NC(=O)[C@H](Cc1ccccc1)NC(=O)[C@H](CC(N)=O)NC(=O)[C@H](C)NC(=O)[C@H](CC(C)C)NC(=O)[C@H](CCCNC(=N)N)NC(=O)[C@H](CCC(N)=O)NC(=O)[C@@H](NC(=O)[C@H](C)NC(=O)[C@@H]1CSSC[C@H](NC(=O)[C@@H](N)CCCCNC(=O)COCCOCCNC(=O)CC[C@H](NC(=O)CCCCCCCCCCCCCCCCCCC(=O)O)C(=O)O)C(=O)N[C@@H](CC(N)=O)C(=O)N[C@@H]([C@@H](C)O)C(=O)N[C@@H](C)C(=O)N[C@@H]([C@@H](C)O)C(=O)N1)[C@@H](C)O)C(=O)N1CCC[C@H]1C(=O)N[C@@H](CO)C(=O)N[C@@H](CO)C(=O)N[C@H](C(=O)N1CCC[C@H]1C(=O)N[C@H](C(=O)NCC(=O)N[C@@H](CO)C(=O)N[C@@H](CC(N)=O)C(=O)N[C@H](C(=O)N[C@@H](Cc1ccc(O)cc1)C(N)=O)[C@@H](C)O)C(C)C)[C@@H](C)O
notes: analogue of human amylin; also called compound 49
B3: N^ε1-[2-[2-[2-[[(4S)-4-carboxy-4-(19-carboxynonadecanoylamino)butanoyl]amino]ethoxy]ethoxy]acetyl]-[Arg17,Pro21,Pro27,Glu35]-h-amylin (peptide)
peptide: K([AEEA-γGlu-C20 diacid])CNTATCATQRLANFLRHSSPNFGAIPSSTNVGSETY-NH2
modifications: disulfide 2-7; N-terminus assumed
SMILES: CC[C@H](C)[C@H](NC(=O)[C@H](C)NC(=O)CNC(=O)[C@H](Cc1ccccc1)NC(=O)[C@H](CC(N)=O)NC(=O)[C@@H]1CCCN1C(=O)[C@H](CO)NC(=O)[C@H](CO)NC(=O)[C@H](Cc1c[nH]cn1)NC(=O)[C@H](CCCNC(=N)N)NC(=O)[C@H](CC(C)C)NC(=O)[C@H](Cc1ccccc1)NC(=O)[C@H](CC(N)=O)NC(=O)[C@H](C)NC(=O)[C@H](CC(C)C)NC(=O)[C@H](CCCNC(=N)N)NC(=O)[C@H](CCC(N)=O)NC(=O)[C@@H](NC(=O)[C@H](C)NC(=O)[C@@H]1CSSC[C@H](NC(=O)[C@@H](N)CCCCNC(=O)COCCOCCNC(=O)CC[C@H](NC(=O)CCCCCCCCCCCCCCCCCCC(=O)O)C(=O)O)C(=O)N[C@@H](CC(N)=O)C(=O)N[C@@H]([C@@H](C)O)C(=O)N[C@@H](C)C(=O)N[C@@H]([C@@H](C)O)C(=O)N1)[C@@H](C)O)C(=O)N1CCC[C@H]1C(=O)N[C@@H](CO)C(=O)N[C@@H](CO)C(=O)N[C@H](C(=O)N[C@@H](CC(N)=O)C(=O)N[C@H](C(=O)NCC(=O)N[C@@H](CO)C(=O)N[C@@H](CCC(=O)O)C(=O)N[C@H](C(=O)N[C@@H](Cc1ccc(O)cc1)C(N)=O)[C@@H](C)O)C(C)C)[C@@H](C)O
notes: analogue of human amylin; also called compound 26
B4: N^ε1-[2-[2-[2-[[(4S)-4-carboxy-4-(19-carboxynonadecanoylamino)butanoyl]amino]ethoxy]ethoxy]acetyl]-[Arg14,Arg17,Pro21,Pro27,Pro31]-h-amylin (peptide)
peptide: K([AEEA-γGlu-C20 diacid])CNTATCATQRLARFLRHSSPNFGAIPSSTPVGSNTY-NH2
modifications: disulfide 2-7; N-terminus assumed
SMILES: CC[C@H](C)[C@H](NC(=O)[C@H](C)NC(=O)CNC(=O)[C@H](Cc1ccccc1)NC(=O)[C@H](CC(N)=O)NC(=O)[C@@H]1CCCN1C(=O)[C@H](CO)NC(=O)[C@H](CO)NC(=O)[C@H](Cc1c[nH]cn1)NC(=O)[C@H](CCCNC(=N)N)NC(=O)[C@H](CC(C)C)NC(=O)[C@H](Cc1ccccc1)NC(=O)[C@H](CCCNC(=N)N)NC(=O)[C@H](C)NC(=O)[C@H](CC(C)C)NC(=O)[C@H](CCCNC(=N)N)NC(=O)[C@H](CCC(N)=O)NC(=O)[C@@H](NC(=O)[C@H](C)NC(=O)[C@@H]1CSSC[C@H](NC(=O)[C@@H](N)CCCCNC(=O)COCCOCCNC(=O)CC[C@H](NC(=O)CCCCCCCCCCCCCCCCCCC(=O)O)C(=O)O)C(=O)N[C@@H](CC(N)=O)C(=O)N[C@@H]([C@@H](C)O)C(=O)N[C@@H](C)C(=O)N[C@@H]([C@@H](C)O)C(=O)N1)[C@@H](C)O)C(=O)N1CCC[C@H]1C(=O)N[C@@H](CO)C(=O)N[C@@H](CO)C(=O)N[C@H](C(=O)N1CCC[C@H]1C(=O)N[C@H](C(=O)NCC(=O)N[C@@H](CO)C(=O)N[C@@H](CC(N)=O)C(=O)N[C@H](C(=O)N[C@@H](Cc1ccc(O)cc1)C(N)=O)[C@@H](C)O)C(C)C)[C@@H](C)O
notes: analogue of human amylin; also called compound 64
B5: N^ε1-[2-[2-[2-[[(4S)-4-carboxy-4-(19-carboxynonadecanoylamino)butanoyl]amino]ethoxy]ethoxy]acetyl]-[Arg17,Pro21,Pro27,Pro31,His35]-h-amylin (peptide)
peptide: K([AEEA-γGlu-C20 diacid])CNTATCATQRLANFLRHSSPNFGAIPSSTPVGSHTY-NH2
modifications: disulfide 2-7; N-terminus assumed
SMILES: CC[C@H](C)[C@H](NC(=O)[C@H](C)NC(=O)CNC(=O)[C@H](Cc1ccccc1)NC(=O)[C@H](CC(N)=O)NC(=O)[C@@H]1CCCN1C(=O)[C@H](CO)NC(=O)[C@H](CO)NC(=O)[C@H](Cc1c[nH]cn1)NC(=O)[C@H](CCCNC(=N)N)NC(=O)[C@H](CC(C)C)NC(=O)[C@H](Cc1ccccc1)NC(=O)[C@H](CC(N)=O)NC(=O)[C@H](C)NC(=O)[C@H](CC(C)C)NC(=O)[C@H](CCCNC(=N)N)NC(=O)[C@H](CCC(N)=O)NC(=O)[C@@H](NC(=O)[C@H](C)NC(=O)[C@@H]1CSSC[C@H](NC(=O)[C@@H](N)CCCCNC(=O)COCCOCCNC(=O)CC[C@H](NC(=O)CCCCCCCCCCCCCCCCCCC(=O)O)C(=O)O)C(=O)N[C@@H](CC(N)=O)C(=O)N[C@@H]([C@@H](C)O)C(=O)N[C@@H](C)C(=O)N[C@@H]([C@@H](C)O)C(=O)N1)[C@@H](C)O)C(=O)N1CCC[C@H]1C(=O)N[C@@H](CO)C(=O)N[C@@H](CO)C(=O)N[C@H](C(=O)N1CCC[C@H]1C(=O)N[C@H](C(=O)NCC(=O)N[C@@H](CO)C(=O)N[C@@H](Cc1c[nH]cn1)C(=O)N[C@H](C(=O)N[C@@H](Cc1ccc(O)cc1)C(N)=O)[C@@H](C)O)C(C)C)[C@@H](C)O
notes: analogue of human amylin; also called compound 57
B6: N^ε1-[2-[2-[2-[[(4S)-4-carboxy-4-(19-carboxynonadecanoylamino)butanoyl]amino]ethoxy]ethoxy]acetyl]-[Arg17,Pro21,Pro27,Pro28,Pro34]-h-amylin (peptide)
peptide: K([AEEA-γGlu-C20 diacid])CNTATCATQRLANFLRHSSPNFGAIPPSTNVGPNTY-NH2
modifications: disulfide 2-7; N-terminus assumed
SMILES: CC[C@H](C)[C@H](NC(=O)[C@H](C)NC(=O)CNC(=O)[C@H](Cc1ccccc1)NC(=O)[C@H](CC(N)=O)NC(=O)[C@@H]1CCCN1C(=O)[C@H](CO)NC(=O)[C@H](CO)NC(=O)[C@H](Cc1c[nH]cn1)NC(=O)[C@H](CCCNC(=N)N)NC(=O)[C@H](CC(C)C)NC(=O)[C@H](Cc1ccccc1)NC(=O)[C@H](CC(N)=O)NC(=O)[C@H](C)NC(=O)[C@H](CC(C)C)NC(=O)[C@H](CCCNC(=N)N)NC(=O)[C@H](CCC(N)=O)NC(=O)[C@@H](NC(=O)[C@H](C)NC(=O)[C@@H]1CSSC[C@H](NC(=O)[C@@H](N)CCCCNC(=O)COCCOCCNC(=O)CC[C@H](NC(=O)CCCCCCCCCCCCCCCCCCC(=O)O)C(=O)O)C(=O)N[C@@H](CC(N)=O)C(=O)N[C@@H]([C@@H](C)O)C(=O)N[C@@H](C)C(=O)N[C@@H]([C@@H](C)O)C(=O)N1)[C@@H](C)O)C(=O)N1CCC[C@H]1C(=O)N1CCC[C@H]1C(=O)N[C@@H](CO)C(=O)N[C@H](C(=O)N[C@@H](CC(N)=O)C(=O)N[C@H](C(=O)NCC(=O)N1CCC[C@H]1C(=O)N[C@@H](CC(N)=O)C(=O)N[C@H](C(=O)N[C@@H](Cc1ccc(O)cc1)C(N)=O)[C@@H](C)O)C(C)C)[C@@H](C)O
notes: analogue of human amylin; also called compound 55

Numbered stars: 1 amine (or outer) side, 2 acyl side, 3 side chain; on linkers, the order of the positions; unused ones are H or OH. Bridge positions count the residues as written; N and C are the ends. Side chains are listed from the residue outwards. Ends that are not written are not given here. * marks the point of attachment. C20 diacid = O=C(O)CCCCCCCCCCCCCCCCCCC(=O)*; γGlu = O=C(O)[C@H](CCC(=O)[*:2])N[*:1]; AEEA = NCCOCCOCC(=O)O

The target of the assay is T1, human calcitonin receptor. Nature of the assay: cell-based or functional assay.
Take B1: the “hCTR funct. EC50” value was 4.76 nM.
On to B2, for which the “hCTR funct. EC50” value is 2.39 nM.
Then B3, with 6.34 nM; and B4, with 22.9 nM.
Then B5, with 3.12 nM; and B6, with 0.731 nM.

For the origin of these results see patent US20140087995A1 (published 2014).
